Experimental data: patent US20070054848

Biological target: recombinant full-length p21 (1-164 in SEQ ID NO: 23)
Sequence (chain, as listed by the source): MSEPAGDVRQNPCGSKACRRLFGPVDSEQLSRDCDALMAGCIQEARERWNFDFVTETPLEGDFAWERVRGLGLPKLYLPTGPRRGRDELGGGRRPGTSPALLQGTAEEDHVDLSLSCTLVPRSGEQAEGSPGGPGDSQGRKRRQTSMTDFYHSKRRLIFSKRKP

B1: Rho kinase fragment (aa 1-543, Upstate Biotechnology) (protein)
chain: MSRPPPTGKMPGAPETAPGDGAGASRQRKLEALIRDPRSPINVESLLDGLNSLVLDLDFPALRKNKNIDNFLNRYEKIVKKIKGLQMKAEDYDVVKVIGRGAFGEVQLVRHKASQKVYAMKLLSKFEMIKRSDSAFFWEERDIMAFANSPWVVQLFYAFQDDRYLYMVMEYMPGGDLVNLMSNYDVPEKWAKFYTAEVVLALDAIHSMGLIHRDVKPDNMLLDKHGHLKLADFGTCMKMDETGMVHCDTAVGTPDYISPEVLKSQGGDGFYGRECDWWSVGVFLYEMLVGDTPFYADSLVGTYSKIMDHKNSLCFPEDAEISKHAKNLICAFLTDREVRLGRNGVEEIRQHPFFKNDQWHWDNIRETAAPVVPELSSDIDSSNFDDIEDDKGDVETFPIPKAFVGNQLPFIGFTYYRENLLLSDSPSCRENDSIQSRKNEESQEIQKKLYTLEEHLSNEMQAKEELEQKCKSVNTRLEKTAKELEEEITLRKSVESALRQLEREKALLQHKNAEYQRKADHEADKKRNLENDVNSLKDQLEDL
Rho-kinase activity toward S6 kinase substrate peptide ([γ-32P] ATP, scintillation counting): the estimated IC50 value was 1.43 nM
